Assay results from patent publication US12544428B2, “Controlled-release CNP agonists with reduced side-effects” (ASCENDIS PHARMA GROWTH DISORDERS A/S, priority 2016, dated 2026).

Assays:
[1] = Evaluation of cardiovascular effects in the conscious telemetered mouse (subcutaneous administration); type: in vivo, Crl:CD1(ICR) mice; conditions: for MAP: mean ± SD, n = 4
From the text: The purpose of this study was to evaluate the haemodynamic side effects of 11i at dose level equivalent to a CNP-38 dose level eliciting haemodynamic side effects (decrease in blood pressure) in the telemetered mouse.
Male Crl:CD1(ICR) mice (age range 8-13 weeks and body weight range 27.3-35.6 g at start of dosing) were surgically implanted with a TA11PA-C10 telemetry transmitter (Data Sciences International (DSI)) in the carotid artery. The body of the transmitter was placed subcutaneously in the lateral flank of the mouse. The mice were dosed subcutaneously in a latin square crossover design with at least 72 hours between dosing occasions. Mice were dosed with 1) vehicle (10 mM succinate, 46.0 g/L mannitol, pH 4.00), 2) CNP-38 (800 μg CNP-38/kg, 10 mM succinate, 46.0 g/L mannitol, pH 4.00) or 3) 11i (800 μg CNP-38 eq/kg, 10 mM succinate, 46.0 g/L mannitol, pH 4.00). At least four mice were included at each dose level. Blood pressure (systolic (SAP), diastolic (DAP) and mean (MAP) and heart rate (HR, derived from blood pressure), were recorded using a digital data capture system linked with a DSITM Ponemah data acquisition and analysis system. The capture system allowed recording of the cardiovascular parameters whilst the mice were in individual cages. On the day of each test session the animals were weighed and a predose recording was performed for at least 60 min prior to dosing. Each mouse was returned to the home cage and the cardiovascular parameters were recorded for approximately 48 hours postdose. Blood pressure and HR were reported at the following time points: −30, −20, −10, 5, 15 and 30 min postdose and 1, 2, 6, 12, 18, 24, 30, 36, 42 and 48 hours postdose. Each time point was presented as the average value of five minute's recording prior to the time point. The monitoring period was selected to cover exposure to the test items both prior to and after Tmax.

[2] = 0.146 mg CNP-38 eq/kg
Procedure: Plasma total CNP-38 concentrations (conjugated and released CNP-38) were determined by quantification of the N-terminal signature peptide (sequence: […]) and C-terminal signature peptide (sequence: […]) after tryptic digestion.
LC-MS analysis was carried out by using an Agilent 1290 UPLC coupled to an Agilent 6550 iFunnel Q-TOF mass spectrometer via an ESI probe. Chromatography was performed on a Waters Acquity BEH300 C18 analytical column (50×2.1 mm I.D., 1.7 μm particle size) with pre-filter at a flow rate of 0.25 mL/min (T=25° C.). Water (UPLC grade) containing 0.2% formic acid (v/v) was used as mobile phase A and acetonitrile (UPLC grade) with 0.2% formic acid as mobile phase B. The gradient system comprised a short isocratic step at the initial parameters of 0.1% B for 3.0 min followed by a linear increase from 0.1% B to 16% B in 17 min. Mass analysis was performed in the single ion monitoring (SIM) mode, monitoring the ions m/z 482.75 [M+2H]^2+ (N-terminal) and m/z 824.36 [M+H]^1+ (C-terminal). As internal standard deuterated CNP-38 peptide was used.
Calibration standards of CNP-38 conjugate in blank plasma were prepared as follows: The thawed Li-heparin cynomolgous plasma was first homogenized, then centrifuged for 5 minutes. […] These solutions were used for the generation of a calibration curve.
For sample preparation, protein precipitation was carried out by addition of 300 μL of pre-cooled (0° C.) methanol to 100 μL of the plasma sample. 200 μL of the supernatant were transferred into a new well-plate and evaporated to dryness (under a gentle nitrogen stream at 35° C.). 100 μL of reconstitution solvent (Thermo digestion buffer, order number 60109-101, Thermo Fisher Scientific GmbH, Dreieich, Germany) were used to dissolve the residue. 20 μg of trypsin (order number V5111, Promega GmbH, Mannheim, Germany) were dissolved in 20 μL of 10 mM acetic acid. 2 μL of the trypsin solution were added to each cavity.
After 4 hours incubation at 37° C. (water bath), 5 μL of a 0.5 M TCEP solution were added to each cavity and incubated again for 5 min at 96° C. After the samples had cooled to room temperature, 3 μL acetonitrile were added. The eluates were transferred into vials. 10 μL were injected into the UPLC-MS system.
Male cynomolgus monkeys (2-4 years old, 3-5 kg) received either a single subcutaneous administration (n=3 animals) of compound 10f or a single subcutaneous (n=3 animals) administration of 11i at a dose of 0.146 mg CNP-38 eq/kg. Blood samples were collected up to 168 h post dose, and plasma was generated. Plasma levels of total CNP-38 content were analyzed as described in example 24. In order to analyze the plasma content of free CNP-38, the blood samples were acidified after withdrawal by adding 20 vol % of 0.5 M sodium citrate buffer pH 4 to stop further CNP-38 release from the conjugate. Free CNP-38 levels in plasma can e.g. be determined by ELISA using a CNP antibody that binds to the ring region of CNP, as described in the literature (U.S. Pat. No. 8,377,884 B2), or by LC-MS/MS.

NPR-C = target: T1, NPR-C (Homo sapiens, UniProt P17342); test: NPR-C affinity assay; type: binding; conditions: residual NPR-C affinity, NPR-C expressing Hek293 cells, competition with fluorescein-labelled CNP 27d
T1 construct: expressed in transfected cells; host or cells: Hek293, lentiviral transduction, CMV promoter, puromycin selection
T1 sequence (P17342 27-541): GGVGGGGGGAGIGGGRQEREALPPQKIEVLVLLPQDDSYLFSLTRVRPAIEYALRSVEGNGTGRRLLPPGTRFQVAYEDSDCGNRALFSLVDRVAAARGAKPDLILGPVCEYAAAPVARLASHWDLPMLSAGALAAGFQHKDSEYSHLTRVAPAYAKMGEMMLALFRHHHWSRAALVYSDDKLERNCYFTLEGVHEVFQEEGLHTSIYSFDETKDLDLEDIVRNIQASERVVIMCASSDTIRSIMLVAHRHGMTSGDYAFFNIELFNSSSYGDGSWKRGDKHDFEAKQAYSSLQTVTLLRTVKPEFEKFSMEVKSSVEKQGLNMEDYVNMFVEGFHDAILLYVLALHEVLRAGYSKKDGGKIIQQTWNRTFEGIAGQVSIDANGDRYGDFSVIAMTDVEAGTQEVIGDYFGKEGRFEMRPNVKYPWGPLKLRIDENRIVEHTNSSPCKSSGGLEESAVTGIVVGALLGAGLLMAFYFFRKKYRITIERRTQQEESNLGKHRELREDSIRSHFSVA

NPR-B receptor = target: T2, NPR-B receptor (Mus musculus, UniProt Q6VVW5); test: Functional cGMP stimulation in NIH-3T3 cells with CNP variants; type: cell-based, murine; conditions: residual NPR-B activity vs non-PEGylated CNP-38, cGMP
T2 construct: These cells express endogenously the NPR-B receptor on the cell surface; endogenous in cells; host or cells: NIH-3T3 (murine embryo fibroblast)
T2 sequence (Q6VVW5 23-1047 limits assumed): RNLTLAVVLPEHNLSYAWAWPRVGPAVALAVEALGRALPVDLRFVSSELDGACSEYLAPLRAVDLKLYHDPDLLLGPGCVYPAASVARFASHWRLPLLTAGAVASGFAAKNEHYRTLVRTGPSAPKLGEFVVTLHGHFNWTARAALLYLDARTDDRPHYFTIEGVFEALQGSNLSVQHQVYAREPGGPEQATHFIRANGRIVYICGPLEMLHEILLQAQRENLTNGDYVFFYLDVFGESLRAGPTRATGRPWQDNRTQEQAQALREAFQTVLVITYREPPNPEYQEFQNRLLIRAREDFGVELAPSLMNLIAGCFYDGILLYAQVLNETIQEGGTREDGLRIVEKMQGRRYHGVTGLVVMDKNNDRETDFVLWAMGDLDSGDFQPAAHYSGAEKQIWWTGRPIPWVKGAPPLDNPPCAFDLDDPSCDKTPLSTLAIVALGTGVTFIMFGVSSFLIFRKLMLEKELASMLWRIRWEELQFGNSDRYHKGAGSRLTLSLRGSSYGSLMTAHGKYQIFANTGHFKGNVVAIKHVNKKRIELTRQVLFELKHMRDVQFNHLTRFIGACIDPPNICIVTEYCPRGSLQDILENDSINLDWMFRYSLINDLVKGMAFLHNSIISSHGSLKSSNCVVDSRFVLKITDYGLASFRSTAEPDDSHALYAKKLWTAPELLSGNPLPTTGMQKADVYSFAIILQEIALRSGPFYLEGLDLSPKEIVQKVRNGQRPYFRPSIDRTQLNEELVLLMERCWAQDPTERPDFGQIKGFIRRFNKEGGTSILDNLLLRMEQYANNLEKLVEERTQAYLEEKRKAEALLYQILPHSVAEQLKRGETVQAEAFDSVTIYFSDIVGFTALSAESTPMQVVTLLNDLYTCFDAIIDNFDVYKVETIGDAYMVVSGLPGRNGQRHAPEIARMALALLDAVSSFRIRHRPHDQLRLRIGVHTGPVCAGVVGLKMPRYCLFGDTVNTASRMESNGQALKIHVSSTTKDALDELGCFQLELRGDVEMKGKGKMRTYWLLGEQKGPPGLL
Procedure: As used herein “EC50” with regard to controlled-release CNP agonist and CNP agonist refers to the concentration of controlled-release CNP agonist and CNP agonist with which a half-maximum cGMP production of NPR-B is elicited. NPR-B activity in the form of its EC50 of the controlled-release CNP agonist, of the released CNP agonist and of CNP-22 is measured by cultivating NIH-3T3 (Murine Embryo Fibroblast cell line) cells which express NPR-B on their cell surface, incubating the cells with the controlled-release CNP agonist, the corresponding released CNP agonist or CNP-22, respectively, and determining the intracellular production of the second messenger cGMP with a standard cGMP assay. In particular the assay is performed as follows: • (1) murine NIH-3T3 cells expressing endogenous NPR-B are cultivated in DMEM F-12 medium with 5% FBS and 5 mM glutamine at 37° C. and 5% CO2; • (2) for each assay 50,000 cells are resuspended in Dulbecco's PBS with IBMX and incubated with either the controlled-release CNP agonist, the corresponding released CNP agonist or CNP-22; each in different concentrations; • (3) after incubating for 30 min at 37° C. and 5% CO2, the cells are lysed and cGMP levels are determined; and • (4) generating an EC50 value from the determined cGMP levels.
Functional activity of CNP variants were determined in a cell-based assay with NIH-3T3 cells (Murine Embryo Fibroblast cell line). These cells express endogenously the NPR-B receptor on the cell surface. Stimulation of the NPR-B receptor with CNP leads to intracellular production of the second messenger cGMP which is detected with a commercially available cGMP assay. NIH-3T3 cells were routinely cultured in DMEM F-12 medium with 5% FBS and 5 mM glutamine at 37° C. and 5% CO2. For each assay, 50,000 cells were resuspended in stimulation buffer (Dulbecco's PBS with IBMX) and incubated with the CNP variants in different concentrations. CNP (dilutions were made in PBS with 0.2% BSA). After incubation of 30 min at 37° C. and 5% CO2, the cells were lyzed and cGMP levels were determined with a commercially available cGMP TR-FRET assay (Cisbio, cGMP kit, Cat. No. 62GM2PEB). PEGylated CNP variants were always characterized in comparison with the non-PEGylated version in the same experiment batch. If possible, evaluation of the residual activity was done via the relative EC50-parameter of the resulting dose-response curve (restricted model with common slope).
11i was incubated under physiological conditions (1 mg CNP-38 eq/mL), as described in Example 20. After 7 d, released CNP-38 was isolated by RP-HPLC and analyzed for bioactivity as described in Example 21.

## Reversible Lys26 CNP-38 PEG4×10 kDa Conjugate [Compound 11i]
[1]; 800 μg CNP-38 (eq)/kg sc
  HR: not impacted
[1]; 1 to 48 hours postdose, 800 μg CNP-38 (eq)/kg sc
  MAP versus vehicle at the remaining ten time points: no difference in MAP
[1]; 5, 15 and 30 min post dose, 800 μg CNP-38 (eq)/kg sc, CNP-38: 3 of 4 animals
  change in MAP compared to predose: same physiological increase in MAP
[1]; 5 min post dose, 800 μg CNP-38 (eq)/kg sc
  MAP: 122.8 ± 5.9 mmHg
[1]; 15 min post dose, 800 μg CNP-38 (eq)/kg sc
  MAP: 121.5 ± 7.5 mmHg
[1]; 30 min post dose, 800 μg CNP-38 (eq)/kg sc
  MAP: 111.5 ± 13.7 mmHg
[1]; predose, 800 μg CNP-38 (eq)/kg sc
  MAP: 106.4 ± 10.7 mmHg
[1]; subcutaneous, dosage equivalent to CNP-38 800 μg/kg
  effect on blood pressure: did not decrease blood pressure
[2]; single sc
  dose site reactions: No dose site reactions were observed
[2]; single sc, C-terminal and N-terminal peptide
  terminal half life: 72 to 96 h
[2]; single sc, C-terminal peptide
  total CNP-38 plasma level after 168 h: ca. 30 % of cmax
[2]; single subcutaneous administration
  total CNP-38 tmax: 24 h

## Permanent N-Terminal CNP-38 PEG 5 kDa Conjugate [Compound 15e]
NPR-C
  IC50 of PEGylated CNP-38/IC50 CNP-38: 0.53
NPR-B receptor
  EC50 compound/EC50 CNP-38: >5
